Measurements from the nanobody polyreactivity screen of Harvey et al. (2022).

assay: yeast display, Sf9 membrane polyspecificity reagent, FACS + sequencing; frameworks hold sequencing errors
How it was run: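 Synthetic nanobody libraries on Saccharomyces cerevisiae BJ5465 were galactose-induced for 36–48 hours, stained 1 hour at 4 °C with 10% biotinylated, detergent-solubilized Sf9 membrane reagent and enriched on streptavidin microbeads. FACS then separated cells into low and high (top ~1%) gates by anti-HA (expression) and streptavidin (reagent binding) fluorescence. Genes were colony-PCR amplified, MiSeq 2 × 250 sequenced and CDR-length filtered. A clone's polyreactivity label is that of its gate of origin.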

Q: Which “polyreactivity (PSR sort gate)” value does the source give for “QVQLVESGGGLVQAGGSLRLSCAASGFTFRYYAMGWYRQAPGKERELVAAIDWSGGSTYYADSVKGRFTISRDNAKNTVYLQMNSLKPEDTAVYYCNAVLVPREYYSWGQGTQVTVSS” here?
A: The value was “low polyreactivity”.

Q: For “QVQLVESGGGLVQAGGSLRLSCAASGSIFKQNTMGWYRQAPGKEREFVAAISSGGSTYYADSVKGRFTISRDNAKNTVYLQMNSLKPEDTAVYYCAKYYDWDYYLPLEGDYWGQGTQVTVSS”, which “polyreactivity (PSR sort gate)” value is on record?
A: The value was “low polyreactivity”.

Q: Which “polyreactivity (PSR sort gate)” value does the source give for “QVQLVESGGGLVQAGGSLRLSCAASGSTFGYNAMGWYRQAPGKERELVAAISYSGGSTSYADSVKGRFTISRDNAKNIVYLQMNSLKPEDTAVYYCARDSYSQYSSQALEGYGYWGQGTQVTVSS” here?
A: The value was “low polyreactivity”.

Q: For “QVQLVESGGGLVQAGGTLRLSCAASGYIFDRNAMGWYRPAPGKERELVAAITKRGGSTYYADSVKGRFTISRDNAKNTVYLQMNSLKPEETAVYYCNALARSSRYDYWGQGTQVTVSS”, which “polyreactivity (PSR sort gate)” value is on record?
A: The value was “low polyreactivity”.

Q: With “QVQLVESGGGLVQAGGSHRLSCAASGIIFILYTMGWYRQAPGKERELVATISSGGGSTFYADSVKGRFTISRDNAKNTVYLQMNSLKPEDTAVYYCAAYPVFGYSYDYWGQGTQVTVSS” as the sequence, how does the “polyreactivity (PSR sort gate)” value read?
A: The value was “low polyreactivity”.

Q: Which “polyreactivity (PSR sort gate)” value does the source give for “QVQLVESGGGLVQAGGSLRLSCAASGLTFKYYAMGWYRQAPGKERELVAAITYSVGTTYYADSVKGRFTISRDNAKNTVYLQMNSLKPEDTAVYYCAADFAPVGLPSPYAVSEGEDDYWGQGTQVTVSS” here?
A: Its value is “low polyreactivity”.

Q: Which “polyreactivity (PSR sort gate)” value does the source give for “QDQLVESRGDLVQAGGSLRLSCAASGSIFYDYAMRWYRQAPGKERELVAASDSGRNTTYADSVKGRFTISRDNAKKTVYFQMNSLKPEATAVYYCKTDPGWFDDSPPDPYIYGGYDYWGQGTQVTVSS” here?
A: The value was “high polyreactivity”.

Q: Which “polyreactivity (PSR sort gate)” value does the source give for “QVLLQESGGGLVQAGGSLRLGCAASGTISPAYYMGRSLQAPGKEREFVAAITYGTNTYYADSVKGRFTISRDNAKNTVYLQMNSLKPEDTAVYYCSATAGYNGAHDYWGQATQVTVSS” here?
A: The value was “low polyreactivity”.

Q: With “QVQLVESGGGLVQAGGSISLSCAASGFIFDDNAMGCYRQAPGKERELVAAISQGAGRTYYADSVKGRFTISRDNAKNTVYLQMNSVKPEDTAVYYCNSGRPKYWYGSKYDYWGQGTQVTVSS” as the sequence, how does the “polyreactivity (PSR sort gate)” value read?
A: The value was “low polyreactivity”.

Q: Which “polyreactivity (PSR sort gate)” value does the source give for “QVQLVESGGGLVQAGGSLRISCPASGTFYYYGMGWSRQAPGKERELVAAISWSGTSTFYADSVKGRFTISRDNAKNTVYIQMKSLKPEDTAVYYCHKPKFDSSGHDYWGQGTQETVSS” here?
A: The value was “low polyreactivity”.

Q: Which “polyreactivity (PSR sort gate)” value does the source give for “QVQLVESGGGLVQAGGSLRLSCAASGGTFQINAMGWYRQAPGKEREMVAAISAAGGRTYYADSVKGRFTISRDNANNTVYLQMNSLKPEDTAVSYCAADWSYQVGRHQYFPMRYDYWGQGTQVTVSS” here?
A: The value was “high polyreactivity”.

Q: Which “polyreactivity (PSR sort gate)” value does the source give for “QVQLVESGGGLVQAGGSLRLSCAASGRIFGDNTMGWYRQAPGKERELVAAISFTGGSTYYADSVKGRFTISRDNAKNTVYLQMNSLKPEDTAVYYCNADWVSTWGYDYWGQGTQVTVSS” here?
A: The value was “low polyreactivity”.

Q: Which “polyreactivity (PSR sort gate)” value does the source give for “QVQLQDSGGGLVQAGGSLRLICAASVTIFSYSDLGWYRQAPGKERKFVAGIGFGSNSNFADSVRGRFTISRDNAKNTVYLQMNSLKPEDTAVYYCAAVWFDYSTHRYWGQGTKVTVSS” here?
A: Its value is “high polyreactivity”.

Q: With “QVQLVESGGGLVQAGGSLRLSCAASGSTFLTYAMGWYRQAPGKERELVASISRSGSTNYADSVKGRFTISRDNAKNTVYLQLNSLKPEDTAVYYCAADHTRYSSSWYYKQYYYWGQGTQVTVSS” as the sequence, how does the “polyreactivity (PSR sort gate)” value read?
A: The value was “low polyreactivity”.

Q: With “QVQLVESGGGLDQAGGSLRLSCAASGITFQGYAMGWYRQAPGKERELVAAINDSGSSTYYADSVKGRFTISRDNAKNTVYLQMNSLKPEDTAVYYCAAYLWFWGQGTQVTVSS” as the sequence, how does the “polyreactivity (PSR sort gate)” value read?
A: Its value is “low polyreactivity”.

Q: For “QVQLVESGGGLVQAGGSLRLSCAASGFIFTRNAMGWYRQAPGKERELVATISRSGSSTSYADSVKGRFTISRDNAKNTVYLQMNRLKPEDTAVYYCAATYIYRHSVISRYDYWGQGTQVTVSS”, which “polyreactivity (PSR sort gate)” value is on record?
A: Its value is “high polyreactivity”.

Q: For “QVQLVESGGGLVQAGGSLRLSCPASGRTIEGYAMGWYRQATGKERELVAAISRRGGSTYYADSVKGRFTISRDNAKNTVFLQMNSLKPEDTAVYYCAARDASTGAVRYYYWGQGTQVTVSS”, which “polyreactivity (PSR sort gate)” value is on record?
A: Its value is “high polyreactivity”.

Q: For “QVQLVESGGGLVQAGGSLRLSCAASGRTFYPYAMGWYRQAPGKERELVAAIDYSSATTYYADSVKGRFTISRDNAKNTVYLQMNSLKPEDTAVFYCARVGIGVGWTKLNYWGQGTQVTVSS”, which “polyreactivity (PSR sort gate)” value is on record?
A: Its value is “low polyreactivity”.

Q: For “QVQLQESGGVQEQEGGSLRQSCAESGTIFLYAYMGWYRQAPGKERELVAAIDVGTTTNYADSVKGRFTICRDNAKNTVYLQMNSLKPDDTAVYYCAANLGYLDDLGYWGQGTQVTVSS”, which “polyreactivity (PSR sort gate)” value is on record?
A: Its value is “low polyreactivity”.

Q: Which “polyreactivity (PSR sort gate)” value does the source give for “QVQLVESGVGLVQAGGSLRLSCAASGSILSKNAMAWYREAPGNERELVAAITWSGGSTYYADSVKGRFTISRDNEKNTVYLQMNSLKPEDTAVSYCAADLDWSPHFGLPYDYWGQGTQVTVSS” here?
A: Its value is “low polyreactivity”.

Q: With “QVQLVESGGGLVHAGGSLRLSCAASGSIFGRYVMGWYRQAPGKERELVAAITRSGGSTYYADSVKGRFTISRDNAKNTVYLQMNSLKPEDTAVYYCNADVNFIDDDYWGHGTQVTVSS” as the sequence, how does the “polyreactivity (PSR sort gate)” value read?
A: Its value is “low polyreactivity”.

Q: With “QVQLVESGGGLVQAGGSLRLSCAASGRTFVGYAMGWYRQAPGKERELVAAIRNGGGTYYADSVKGRFTISRDNAKNTVYLQMNSLKPEDTAVYYCAARLPRSLKVGYYWGQGTQVTVSS” as the sequence, how does the “polyreactivity (PSR sort gate)” value read?
A: The value was “high polyreactivity”.

Q: With “QVQLVESGGGLVQAGGSLRLSCAASGRIFYSYTMGWYRQAPGKEREMVAGINRSVGSTYYADSVKGRFTISRDNAKNTVYLQMNSLKPEDTAVYYCAAGSRRRSYYTFSSVHGHYYWGQGTQVTVSS” as the sequence, how does the “polyreactivity (PSR sort gate)” value read?
A: The value was “high polyreactivity”.

Q: With “QVQLVESGGGLVQAGGSLRLSCAASGSIFGLYAMGWYRQAPGKERELVAAINWNGGDTYYADSVKGRFTISRDYAKNTVYLQMNSLIAVDNAVYYCAAYPRDPYKEYDYLGQGTQVTVSS” as the sequence, how does the “polyreactivity (PSR sort gate)” value read?
A: Its value is “low polyreactivity”.

Q: With “QVQLVESGGGLVQAGGSLRLSCAASGFTFGFYAMGWYRQAPGKERELVASITTRGGSTRYADSVKGRFTISRDNAKNTVYLQMNSLKPEDTAVYYCAAQYSYVRYLKRGYGYWGQGTQVTVSS” as the sequence, how does the “polyreactivity (PSR sort gate)” value read?
A: The value was “high polyreactivity”.

Q: For “QVQLVESGGGLVQAGGSLRLSCSASGIIFGGNAMGWYRQAPGKERELVAGISSRGGSTYYADSVKGRFTISRDNAKNTVYLQMNSLKPEDTAVYYCAAVSSRRPGYEYYYWGQGTQVTVSS”, which “polyreactivity (PSR sort gate)” value is on record?
A: Its value is “high polyreactivity”.

Q: Which “polyreactivity (PSR sort gate)” value does the source give for “QVQLVESGGGIVQAGGSLRLSCAASGFLYFFYAMGWYRQAPRKQRELVAANSDGVSTYYADSVKGRFTISRDNAKNTVYLQMNSLKPEDTAVFYCAVSRGDDPEFDYWGQCTQVTVSS” here?
A: Its value is “low polyreactivity”.

Q: For “QVQLVESGGGLVQAGGSLRLSCAASGLIFLDYAMGWNRQAPWKERELVAAITGRGGSTYYADSVKGRFTISRDNAKNTVYLQMNSLKPDDTAVYDCAAQYSYPTPYRTYEYDYWGQGTQVTVSS”, which “polyreactivity (PSR sort gate)” value is on record?
A: Its value is “high polyreactivity”.

Q: With “QVQLVESGGGLVQAGGSLRLSCAASGGTFVGYTMGWYRQAPGKERELVAGIRTRSGSTSYADSVKGRFTISRDNAKNTVYLQMNSLKPEDTAVYYCAARPYGRYPYPEYYYWGQGTQVTVSS” as the sequence, how does the “polyreactivity (PSR sort gate)” value read?
A: The value was “high polyreactivity”.

Q: With “QVQLVESGGGLVQAGGSLRLSCASSGRTISSYAMGWYRQPPGKERELVAGISWRGGRTYYADSVKGRFTISRDNAKITVYLQMNSLKPEDTAVSYCAADRVRGGYRTYYWVVHLDYWGQGTQVTVSS” as the sequence, how does the “polyreactivity (PSR sort gate)” value read?
A: Its value is “high polyreactivity”.

Q: For “QVQLVESGGGLVQAGGSLRLSCAASGFIFRGYAMGWYRQAPGKERELVAAITGGGGRTYYADSVKGRFTISRDNAKNTVYLQMNSLKPEDTAVYYCARRFAYSFDYGYWGQGTQVTVSS”, which “polyreactivity (PSR sort gate)” value is on record?
A: The value was “high polyreactivity”.

Q: With “QVQLLESGGGLVQAGGSLRLSCAASGSTFDIYTMGWYRQAPGKERELVAAISRSGTRTYYADSVKGRFTISRDNAKNTVYLQMNSLKPEDTAVYYCNAVQQYYGTWGYGYWGQGTQVTVSS” as the sequence, how does the “polyreactivity (PSR sort gate)” value read?
A: The value was “high polyreactivity”.

Q: With “QVQLEESGGGLVQAGGSLRLRCAASGRTFHAYVMGWYRQAPGKERELVADISSGGDTYADSVKGRFTISRDNAKNTVYLQMNSLKPEDSAVYYCAVDLIQDESGYWGQGTQVNVSS” as the sequence, how does the “polyreactivity (PSR sort gate)” value read?
A: Its value is “low polyreactivity”.

Q: For “QVHLVESGGGLVQAAGSLRLSCAASGITFAPYAMGWYRQAPGKERELVAGINTGGSTYYADSVKGRFTISRDKEKNTVYLQMNSLKPEDTAFYYCATDSYPADQDIPGCDYWGQGTQVTVSS”, which “polyreactivity (PSR sort gate)” value is on record?
A: Its value is “low polyreactivity”.

Q: For “QVQLEESGGGLVQAGGSLRLSCAASGLIFSAYAMGWYRQAPGKERELVAAIRTGGSTYYADSVKGRFTFSRDNAKNTVYLQMNSLKPVDTAVYYCAASQKGYFYYNVYYWGQGTQVTVSS”, which “polyreactivity (PSR sort gate)” value is on record?
A: Its value is “high polyreactivity”.

Q: Which “polyreactivity (PSR sort gate)” value does the source give for “QVQLVESGGGLVQAGGSLRLSCAASGLIMRTNVMGWYRQPPGKERELVAAINFRTGSTYYADSVKGRFTISRDHAKNTVYLQMNSLKPEDTAVYYCAKAERRHYDYWGQGTQVTVSS” here?
A: The value was “low polyreactivity”.

Q: With “QVQLVESGGGLVQAGGSLRLSCAASGFIFYFYAMGWYRQAPGKERELVAAISYNGGSTYYADSVKGRFTISRDNAKNTVYLQMNSLKPEDTAVYYCNAVRNYAWGKMYSWGQGTQVTVSS” as the sequence, how does the “polyreactivity (PSR sort gate)” value read?
A: Its value is “high polyreactivity”.

Q: Which “polyreactivity (PSR sort gate)” value does the source give for “QVQLVESGGGLVQAGGSLRLSCAATGSTFYRNAMGWYRQAPGKEREFVAAISFRGGGTYADSVKGRFTISRDNAKNTVFLQMNSLKPEDTAVYYCADDHLSYRRRYEYWGQGTQVTVSS” here?
A: Its value is “low polyreactivity”.

Q: For “QVQLIESGGGLDQAGGSLRLSCAASGFIFWEYAMGWYRQAPGKERELVAGISTSGGSTYYADSVKGLFTISRDNAKNTVYLQMNSLKPEDTAVYYCAVEGWDDTYFRQDMDYWGQGTQVTVSS”, which “polyreactivity (PSR sort gate)” value is on record?
A: The value was “low polyreactivity”.

Q: With “QVQLVESGGGLVQAGVSLRLSCAASGRTFFPNAMGWYRQAPGKERELVAAITHSGGTTYYADSVKGRFTISRDNAKNTVYLQMNSLKPEDTAVYYCARGQPRYYNSAYGYWGLGTQVTVSS” as the sequence, how does the “polyreactivity (PSR sort gate)” value read?
A: Its value is “high polyreactivity”.

Q: For “QVQLQESGGGLEQAGGSLRLSCAASGTNTVLYKMGWFRQAPGKEREFVASINFGTSTYYADSVKGRFTDSRDSAINTVFLHMNSLKPEDTSVYYCAAAYRWQDFYRYWGQGTQVTVSS”, which “polyreactivity (PSR sort gate)” value is on record?
A: Its value is “low polyreactivity”.
